Experiment [1] deals with T1, rI-FABP (SEQ ID NO: 3) variant ADIFAB2, 72A (Rattus norvegicus, UniProt P02693, L73A).
T1 construct: 6xHis (C)
Kind of experiment: fatty acid binding to ADIFAB2. An excerpt: (§1) The major (>75%) FFA species generated from Intralipid® are linoleic, oleic, palmitic and linolenic FFA. Because ADIFAB2 is most specific for stearic acid, for which Intralipid® contains only between 1.5 and 5.5%, FFAu probes with specificity for linoleic, oleic, palmitic and linolenic FFA will provide more accurate and sensitive detection of the rise in plasma FFAu due to Intralipid® hydrolysis. Such FFAu probes have been produced (Table 10) using the methods described in U.S. Pat. No. 7,601,510 and U.S. publication 2010/0298162 and in [Huber A H, Kampf J P, Kwan T, Zhu B and Kleinfeld A M. Fatty acid-specific fluorescent probes and their use in resolving mixtures of different unbound free fatty acids in equilibrium with albumin. Biochemistry 45: 14263-14274, 2006]. Sensitive FFAu probes are necessary for detecting the rise in the patient's FFAu levels, early in the titration of Intralipid®, which is critical for the prevention of unbound bilirubin and FFAu from reaching toxic levels.

Experiment [2] addresses T2, rI-FABP (SEQ ID NO: 3) variant L19CP10C7, MGI-14R 18L 27C 71I 73F 117D (Rattus norvegicus, UniProt P02693, A74F/K28C/L73A/M19L/S72I/Y118D/Y15R).
T2 construct: 6xHis (C); made in house
The experiment can be described thus: fatty acid binding to L19CP10C7.
From the text: as §1

Experiment [3] concerns the target T3, rI-FABP (SEQ ID NO: 3) variant L138P1H8 N24C, MGI-18L 21L 23Y 24C 31I 55V 72S 73S 74G 76V 117H 128Y (Rattus norvegicus, UniProt P02693, A74S/D75G/F129Y/F56V/G32I/I24Y/L73S/M19L/M22L/N25C/T77V/Y118H).
T3 construct: 6xHis (C); made in house
Kind of experiment: fatty acid binding to L138P1H8N24C.
From the text: as §1

Experiment [4] addresses T4, rI-FABP (SEQ ID NO: 3) variant L22P5E11, 38R 69T 72A 73K 106A (Rattus norvegicus, UniProt P02693, A70T/A74K/L39R/L73A/R107A).
T4 construct: 6xHis (C); made in house
The experiment can be described thus: fatty acid binding to L22P5E11.
From the text: as §1

For experiment [5], the target named is T5, rI-FABP (SEQ ID NO: 3) variant L61P8 B12, 8I 14L 18L 23L 27Y 30C 31V 53I 55W 72G 73T 74A 78V 82V 91Y 93M 102V 106W 115W 117L (Rattus norvegicus, UniProt P02693, A74T/D75A/F56W/F94M/G32V/G92Y/I24L/K28Y/L103V/L31C/L73G/L79V/M19L/Q116W/R107W/S54I/V9I/W83V/Y118L/Y15L).
T5 construct: 6xHis (C); made in house
Kind of experiment: fatty acid binding to L61P8B12.
From the text: as §1

In experiment [6] the target is rI-FABP (SEQ ID NO: 3) variant L4BP4B9, 73W 74S (Rattus norvegicus, UniProt P02693, A74W/D75S/L73A). The experiment can be described thus: fatty acid binding to L4BP4B9.
From the text: as §1

For experiment [7], the target named is T6, rI-FABP (SEQ ID NO: 3) variant L119P3E5, 18V 27C 31A 72A 73W (Rattus norvegicus, UniProt P02693, A74W/G32A/K28C/L73A/M19V).
T6 construct: 6xHis (C); made in house
The experiment can be described thus: fatty acid binding to L119P3E5.
From the text: as §1

For the next experiment, the target named is T7, human albumin (Homo sapiens, UniProt P02768).
T7 construct: Pooled human plasma (Golden West Biologicals) for which [albumin] was 620 μM was spiked with bilirubin; tissue Golden West Biologicals; host or cells: pooled human plasma
The experiment can be described thus: Bilirubin binding to a single human albumin site (bilirubin spiked plasma). Particulars: prediction in good agreement with measured [Bf] in spiked pooled human plasma. On the procedure: Pooled human plasma (Golden West Biologicals) for which [albumin] was 620 μM was spiked with bilirubin to generate plasma samples with bilirubin/albumin ratios from of approximately 0 to 0.9. Measurements of [Bf] were carried out using BL22P1B1-Rh in either a Fluorolog3 (JY Horiba) using 10×10 mm cuvettes or in a FFAu Meter (FFA Sciences) modified for measuring unbound bilirubin by replacing emission filters with ones centered at […]. Measurements of [Bf] were also performed on the same samples using the peroxidase method of Jacobsen and Wennberg [Jacobsen J and Wennberg R P. Determination of unbound bilirubin in the serum of newborns. Clin Chem 20: 783, 1974].

Experiment [8] addresses T8, rI-FABP (SEQ ID NO: 3) variant BL22P1B11, MGI-KR14-14R 18L 25C 27A 38V 60R 73F 106L 115R 117D, SEQ ID NO: 35 (Rattus norvegicus, UniProt P02693, A74F/K101R/K126R/K17R/K21R/K28A/K30R/K38R/K47R/K51R/K89R/K8R/K93R/K95R/L39V/L73A/M19L/Q116R/R107L/V26C/V61R/Y118D/Y15R).
T8 construct: made in house
The class given is binding.

The format of experiment [9] is binding.
Where [10] appears, read: Table 6, lysine labeled probes, Primary Fluor Acrylodan.
Setting [11] is: Table 6, Primary Fluor Acrylodan.
Where [12] appears, read: Table 6, Primary Fluor Biotium CF750 SE.
Where [13] appears, read: Table 6, Primary Fluor Kodak X-Sight 670 LSS dye.
Setting [14] is: Table 6, Primary Fluor LiCor IRDye 680 LT.
Setting [15] is: Table 6, Primary Fluor LiCor IRDye 700DX.

Where a chain is given by its changes, count along the chain named. Read-outs that look alike come from different tables or passages of the source.

Kd and Is data for 10 molecules are collected here from patent publication US10295551B2, “Development and use of fluorescent probes of unbound bilirubin” (Alan Marc Kleinfeld, priority 2011, dated 2019).

T1 sequence (P02693 with tags, fused parts or gaps L73A): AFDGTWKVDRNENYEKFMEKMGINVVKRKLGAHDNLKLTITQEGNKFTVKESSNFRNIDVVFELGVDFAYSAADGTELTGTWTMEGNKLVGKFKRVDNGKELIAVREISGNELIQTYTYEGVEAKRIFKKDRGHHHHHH
T3 sequence (P02693 with tags, fused parts or gaps with the stated changes): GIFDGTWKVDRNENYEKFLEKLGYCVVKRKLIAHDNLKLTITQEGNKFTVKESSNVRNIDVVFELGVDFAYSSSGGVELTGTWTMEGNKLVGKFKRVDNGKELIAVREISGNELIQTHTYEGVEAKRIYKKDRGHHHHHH
rI-FABP (SEQ ID NO: 3) variant L4BP4B9, 73W 74S, sequence (P02693 with tags, fused parts or gaps L73A/A74W/D75S): as the sequence (P02693 with tags, fused parts or gaps L73A) above, with A73W, D74S counted along it
T5 sequence (P02693 with tags, fused parts or gaps with the stated changes): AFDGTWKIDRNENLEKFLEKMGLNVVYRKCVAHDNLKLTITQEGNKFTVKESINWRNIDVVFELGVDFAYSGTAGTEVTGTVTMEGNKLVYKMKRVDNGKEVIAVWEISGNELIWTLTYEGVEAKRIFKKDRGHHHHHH
T6 sequence (P02693 with tags, fused parts or gaps M19V/K28C/G32A/L73A/A74W): as the sequence (P02693 with tags, fused parts or gaps L73A) above, with M18V, K27C, G31A, A73W counted along it
T2 sequence (P02693 with tags, fused parts or gaps Y15R/M19L/K28C/S72I/L73A/A74F/Y118D): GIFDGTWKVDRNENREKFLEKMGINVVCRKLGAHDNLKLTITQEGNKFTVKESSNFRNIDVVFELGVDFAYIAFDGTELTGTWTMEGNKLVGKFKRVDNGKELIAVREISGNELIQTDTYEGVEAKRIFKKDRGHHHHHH
T4 sequence (P02693 with tags, fused parts or gaps L39R/A70T/L73A/A74K/R107A): as the sequence (P02693 with tags, fused parts or gaps L73A) above, with L38R, A69T, A73K, R106A counted along it
T8 sequence (P02693 with tags, fused parts or gaps with the stated changes): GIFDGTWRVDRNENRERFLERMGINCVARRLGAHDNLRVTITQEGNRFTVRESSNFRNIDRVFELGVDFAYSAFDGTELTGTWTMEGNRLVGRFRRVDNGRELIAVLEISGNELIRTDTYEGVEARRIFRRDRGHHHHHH
T7 sequence (P02768 25-609): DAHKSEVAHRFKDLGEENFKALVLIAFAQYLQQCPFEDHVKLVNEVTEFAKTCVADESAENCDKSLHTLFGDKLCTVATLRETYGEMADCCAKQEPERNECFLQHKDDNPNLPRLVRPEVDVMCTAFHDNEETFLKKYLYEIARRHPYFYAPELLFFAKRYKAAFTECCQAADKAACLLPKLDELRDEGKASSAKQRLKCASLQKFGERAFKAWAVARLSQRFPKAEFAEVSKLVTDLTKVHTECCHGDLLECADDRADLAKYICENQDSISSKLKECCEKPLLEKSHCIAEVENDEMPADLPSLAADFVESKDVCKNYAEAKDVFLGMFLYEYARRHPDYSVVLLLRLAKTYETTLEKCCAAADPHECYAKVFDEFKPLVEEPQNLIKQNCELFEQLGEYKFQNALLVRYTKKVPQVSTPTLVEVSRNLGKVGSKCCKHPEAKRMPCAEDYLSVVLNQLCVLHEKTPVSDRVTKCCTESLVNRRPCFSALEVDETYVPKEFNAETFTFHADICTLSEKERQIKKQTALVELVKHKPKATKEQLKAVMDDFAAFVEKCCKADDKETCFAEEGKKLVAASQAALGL

As usually defined, the Kd is the constant that tells how readily two partners part at equilibrium. With `CCCCCCCC/C=C\CCCCCCCC(=O)O` [Oleate 18:1 (n-9), Oleate], the Kd stood at 0.0215 µM in experiment [1]; 0.0012 µM in experiment [2]; 0.0076 µM in [3]; 0.0031 µM in [4]; 0.0043 µM in experiment [5]; 0.0189 µM in experiment [6]. This molecule also had a dissociation constant Kd in [7] of 0.0127 µM.
Take `CCCCC/C=C\C/C=C\CCCCCCCC(=O)O` [Linoleate 18:2 (n-6), Linoleate]: the Kd was determined as 0.105 µM in experiment [1]; 0.0008 µM in experiment [2]; 0.0065 µM in [3]; 0.0067 µM in [4]; 0.0257 µM in [5]; 0.0408 µM in experiment [6]. This molecule returned a Kd in experiment [7] of 0.023 µM.
As for `C=CC1=C(C)/C(=C/c2[nH]c(Cc3[nH]c(/C=C4\NC(=O)C(C)=C4C=C)c(C)c3CCC(=O)O)c(CCC(=O)O)c2C)NC1=O` [Bilirubin, unconjugated bilirubin IXα], the Kd at human albumin was 0.02 µM.
Regarding `CC/C=C\C/C=C\C/C=C\CCCCCCCC(=O)O` [Linolenate 18:3 (n-3), Linolenate], in experiment [8], the Kd was determined as 3.46 µM.

B1: BL8P9 C9: SEQ 3 mutein: 18L, 38F, 60F, 73F, 106D, 115R, 117R (protein)
chain: AFDGTWKVDRNENYEKFLEKMGINVVKRKLGAHDNLKFTITQEGNKFTVKESSNFRNIDFVFELGVDFAYSAFDGTELTGTWTMEGNKLVGKFKRVDNGKELIAVDEISGNELIRTRTYEGVEAKRIFKKDRGHHHHHH
modifications: acrylodan labeled; rat intestinal fatty acid binding protein with substitution of Xaa at one or more of 14, 18, 23, 25, 27, 31, 36, 38, 55, 60, 72, 73, 74, 78, 102, 104, 106, 115 and 117; rat intestinal fatty acid binding protein in which one amino acid residue may be substituted with cysteine or lysine; optional 6His tag at N terminus; Xaa=any amino acid
B1 had a Kd in [9] (setting [10]) of 0.723 µM. In experiment [9] (setting [11]), the Is worked out at 0.00.

B2: L1P1 C 12: SEQ 3 mutein: 38I 72W 117W (protein)
chain: B1 chain with L18M, F38I, F60V, A72W, F73A, D106R, R115Q, R117W
modifications: acrylodan label; rat intestinal fatty acid binding protein with substitution of Xaa at one or more of 14, 18, 23, 25, 27, 31, 36, 38, 55, 60, 72, 73, 74, 78, 102, 104, 106, 115 and 117; rat intestinal fatty acid binding protein in which one amino acid residue may be substituted with cysteine or lysine; optional 6His tag at N terminus; Xaa=any amino acid
In turn, B2 registered a Kd in [9] (setting [10]) of 0.0358 µM. The same molecule showed an Is in experiment [9] (setting [11]) of 0.11.

B3: L1P1 B4: SEQ 3 mutein: 14I 72W 117W (protein)
chain: B1 chain with Y14I, L18M, F38L, F60V, A72W, F73A, D106R, R115Q, R117W
modifications: acrylodan label; rat intestinal fatty acid binding protein with substitution of Xaa at one or more of 14, 18, 23, 25, 27, 31, 36, 38, 55, 60, 72, 73, 74, 78, 102, 104, 106, 115 and 117; rat intestinal fatty acid binding protein in which one amino acid residue may be substituted with cysteine or lysine; optional 6His tag at N terminus; Xaa=any amino acid
Turning to B3, the Kd in experiment [9] (setting [10]) was determined as 0.711 µM. This molecule had an Is in [9] (setting [11]) of 0.

B4: BL8P9 G9: SEQ 3 mutein: 18L, 38A, 73F, 106V, 115R, 117D (protein)
chain: B1 chain with F38A, F60V, D106V, R117D
modifications: acrylodan labeled; rat intestinal fatty acid binding protein with substitution of Xaa at one or more of 14, 18, 23, 25, 27, 31, 36, 38, 55, 60, 72, 73, 74, 78, 102, 104, 106, 115 and 117; rat intestinal fatty acid binding protein in which one amino acid residue may be substituted with cysteine or lysine; optional 6His tag at N terminus; Xaa=any amino acid
On to B4, for which the Kd in experiment [9] (setting [10]) was 1.05 µM. Moreover, the Is in experiment [9] (setting [11]) is listed as 0.29.

B5: BL22P1B11 - 25K: SEQ 3 mutein: MGI - KR14 - 14R 18L 25K 27A 38V 60R 73F 106L 115R 117D (protein)
chain: B1 chain with Y14R, V25K, K27A, F38V, F60R, D106L, R117D
modifications: BL22P1B11; Tyr->Arg; Met-> Leu; Val-> Cys; Lys-> Ala; Leu-> Val; Val-> Arg; Leu-> Ala; Ala-> Phe; Arg-> Leu; Gln-> Arg; Tyr -> Asp; 6His tag at N terminus
For the molecule B5, the Is is 0.19 in experiment [9] (setting [12]), 0.61 in experiment [9] (setting [13]), 0.67 in experiment [9] (setting [14]) and 0.14 in experiment [9] (setting [15]). In addition, the Kd in experiment [9] (setting [12]) amounted to 9.5 µM; in [9] (setting [13]), 0.7 µM; in experiment [9] (setting [14]), 0.239 µM; in experiment [9] (setting [15]), 0.08 µM.

B6: L1P14 D6: SEQ 3 mutein: 14M 72V 117W (protein)
chain: B1 chain with Y14M, L18M, F38L, F60V, A72V, F73A, D106R, R115Q, R117W
modifications: acrylodan label; rat intestinal fatty acid binding protein with substitution of Xaa at one or more of 14, 18, 23, 25, 27, 31, 36, 38, 55, 60, 72, 73, 74, 78, 102, 104, 106, 115 and 117; rat intestinal fatty acid binding protein in which one amino acid residue may be substituted with cysteine or lysine; optional 6His tag at N terminus; Xaa=any amino acid
In experiment [9] (setting [10]), B6 showed a Kd of 0.309 µM. The Is in [9] (setting [11]) amounted to 0.04.
